Values of other authors, collected in article PMC6451094.

Molecular target: TBP (Saccharomyces cerevisiae) (UniProt P13393)
Sequence of UniProt P13393 (P13393 2-240): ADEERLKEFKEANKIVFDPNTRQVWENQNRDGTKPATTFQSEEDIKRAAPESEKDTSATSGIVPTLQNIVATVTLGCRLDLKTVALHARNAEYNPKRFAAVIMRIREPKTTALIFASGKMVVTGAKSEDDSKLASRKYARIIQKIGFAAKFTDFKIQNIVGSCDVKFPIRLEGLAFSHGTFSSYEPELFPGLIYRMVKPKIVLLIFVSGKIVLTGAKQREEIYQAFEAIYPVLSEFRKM

Kd: 1.5 nM
Substance: Mot1 (from UniProt P32333)
